According to patent US20220411529A1 (Genmab, published 2022):
Where a chain is given by its changes, count along the chain named. Names may count otherwise.

B1: IgG2-CAMPATH-1H-E345R-K439E (antibody)
heavy: QVQLQESGPGLVRPSQTLSLTCTVSGFTFTDFYMNWVRQPPGRGLEWIGFIRDKAKGYTTEYNPSVKGRVTMLVDTSKNQFSLRLSSVTAADTAVYYCAREGHTAAPFDYWGQGSLVTVSSASTKGPSVFPLAPCSRSTSESTAALGCLVKDYFPEPVTVSWNSGALTSGVHTFPAVLQSSGLYSLSSVVTVPSSNFGTQTYTCNVDHKPSNTKVDKTVERKCCVECPPCPAPPVAGPSVFLFPPKPKDTLMISRTPEVTCVVVDVSHEDPEVQFNWYVDGVEVHNAKTKPREEQFNSTFRVVSVLTVVHQDWLNGKEYKCKVSNKGLPAPIEKTISKTKGQPRRPQVYTLPPSREEMTKNQVSLTCLVKGFYPSDIAVEWESNGQPENNYKTTPPMLDSDGSFFLYSKLTVDKSRWQQGNVFSCSVMHEALHNHYTQESLSLSPGK
light: not shown
B2: IgG2-CAMPATH-1H-E345R-K439E-N297A (antibody)
heavy: B1 heavy with N297A
light: not shown
B3: IgG4-CAMPATH-1H-E345R-K439E (antibody)
heavy: QVQLQESGPGLVRPSQTLSLTCTVSGFTFTDFYMNWVRQPPGRGLEWIGFIRDKAKGYTTEYNPSVKGRVTMLVDTSKNQFSLRLSSVTAADTAVYYCAREGHTAAPFDYWGQGSLVTVSSASTKGPSVFPLAPCSRSTSESTAALGCLVKDYFPEPVTVSWNSGALTSGVHTFPAVLQSSGLYSLSSVVTVPSSSLGTKTYTCNVDHKPSNTKVDKRVESKYGPPCPSCPAPEFLGGPSVFLFPPKPKDTLMISRTPEVTCVVVDVSQEDPEVQFNWYVDGVEVHNAKTKPREEQFNSTYRVVSVLTVLHQDWLNGKEYKCKVSNKGLPSSIEKTISKAKGQPRRPQVYTLPPSQEEMTKNQVSLTCLVKGFYPSDIAVEWESNGQPENNYKTTPPVLDSDGSFFLYSRLTVDKSRWQEGNVFSCSVMHEALHNHYTQESLSLSLGK
light: not shown
B4: IgG4-CAMPATH-1H-E345R-K439E-N297A (antibody)
heavy: B3 heavy with N298A
light: not shown
B5: IgG2-11B8-E345R-S440K (antibody)
heavy: EVQLVQSGGGLVHPGGSLRLSCTGSGFTFSYHAMHWVRQAPGKGLEWVSIIGTGGVTYYADSVKGRFTISRDNVKNSLYLQMNSLRAEDMAVYYCARDYYGAGSFYDGLYGMDVWGQGTTVTVSSASTKGPSVFPLAPCSRSTSESTAALGCLVKDYFPEPVTVSWNSGALTSGVHTFPAVLQSSGLYSLSSVVTVPSSNFGTQTYTCNVDHKPSNTKVDKTVERKCCVECPPCPAPPVAGPSVFLFPPKPKDTLMISRTPEVTCVVVDVSHEDPEVQFNWYVDGVEVHNAKTKPREEQFNSTFRVVSVLTVVHQDWLNGKEYKCKVSNKGLPAPIEKTISKTKGQPRRPQVYTLPPSREEMTKNQVSLTCLVKGFYPSDIAVEWESNGQPENNYKTTPPMLDSDGSFFLYSKLTVDKSRWQQGNVFSCSVMHEALHNHYTQKKLSLSPGK
light: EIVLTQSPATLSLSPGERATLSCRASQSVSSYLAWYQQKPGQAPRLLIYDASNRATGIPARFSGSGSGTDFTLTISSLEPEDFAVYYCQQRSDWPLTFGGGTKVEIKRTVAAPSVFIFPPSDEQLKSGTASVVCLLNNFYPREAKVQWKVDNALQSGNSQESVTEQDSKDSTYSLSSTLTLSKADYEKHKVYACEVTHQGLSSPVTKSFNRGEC
B6: IgG2-11B8-E345R-S440K-N297A (antibody)
heavy: B5 heavy with N301A
light: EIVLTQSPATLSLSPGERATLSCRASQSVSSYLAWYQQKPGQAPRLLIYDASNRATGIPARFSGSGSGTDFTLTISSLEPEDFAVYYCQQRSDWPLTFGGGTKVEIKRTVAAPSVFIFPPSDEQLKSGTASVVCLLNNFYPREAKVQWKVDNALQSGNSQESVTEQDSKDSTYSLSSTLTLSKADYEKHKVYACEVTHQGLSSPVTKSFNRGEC
B7: IgG4-11B8-E345R-S440K (antibody)
heavy: EVQLVQSGGGLVHPGGSLRLSCTGSGFTFSYHAMHWVRQAPGKGLEWVSIIGTGGVTYYADSVKGRFTISRDNVKNSLYLQMNSLRAEDMAVYYCARDYYGAGSFYDGLYGMDVWGQGTTVTVSSASTKGPSVFPLAPCSRSTSESTAALGCLVKDYFPEPVTVSWNSGALTSGVHTFPAVLQSSGLYSLSSVVTVPSSSLGTKTYTCNVDHKPSNTKVDKRVESKYGPPCPSCPAPEFLGGPSVFLFPPKPKDTLMISRTPEVTCVVVDVSQEDPEVQFNWYVDGVEVHNAKTKPREEQFNSTYRVVSVLTVLHQDWLNGKEYKCKVSNKGLPSSIEKTISKAKGQPRRPQVYTLPPSQEEMTKNQVSLTCLVKGFYPSDIAVEWESNGQPENNYKTTPPVLDSDGSFFLYSRLTVDKSRWQEGNVFSCSVMHEALHNHYTQKKLSLSLGK
light: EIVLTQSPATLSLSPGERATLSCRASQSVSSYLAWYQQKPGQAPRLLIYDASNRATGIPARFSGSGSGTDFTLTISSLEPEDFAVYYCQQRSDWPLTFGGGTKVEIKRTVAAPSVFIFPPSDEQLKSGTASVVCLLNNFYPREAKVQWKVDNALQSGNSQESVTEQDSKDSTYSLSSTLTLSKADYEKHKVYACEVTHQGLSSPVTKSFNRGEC
B8: IgG4-11B8-E345R-S440K-N297A (antibody)
heavy: B7 heavy with N302A
light: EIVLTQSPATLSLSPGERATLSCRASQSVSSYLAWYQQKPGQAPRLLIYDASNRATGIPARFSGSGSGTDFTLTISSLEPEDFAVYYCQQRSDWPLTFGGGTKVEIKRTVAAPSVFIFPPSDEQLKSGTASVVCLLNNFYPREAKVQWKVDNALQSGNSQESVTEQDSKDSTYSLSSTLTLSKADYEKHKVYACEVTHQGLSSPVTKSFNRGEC

Biological target: FcγRIIIa (V158 high affinity allotype) (UniProt P08637 17-254, limits assumed)
Experiment: cell-based or functional assay

Sequence of FcγRIIIa (V158 high affinity allotype) (P08637 17-254 F176V limits assumed): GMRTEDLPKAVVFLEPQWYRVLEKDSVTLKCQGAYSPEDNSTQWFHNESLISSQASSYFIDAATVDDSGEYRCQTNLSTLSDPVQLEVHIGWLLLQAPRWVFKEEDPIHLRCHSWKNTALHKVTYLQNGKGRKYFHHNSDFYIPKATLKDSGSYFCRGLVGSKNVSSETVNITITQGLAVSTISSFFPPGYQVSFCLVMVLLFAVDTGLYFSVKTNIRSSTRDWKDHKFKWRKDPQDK

Binder	FcγRIIIa activation, reporter cell assay, relative AUC, single agent
B1	< 5 % of the level induced by the positive control mixture
B2	< 5 % of the level induced by the positive control mixture
B3	< 5 % of the level induced by the positive control mixture
B4	< 5 % of the level induced by the positive control mixture
B5	< 5 % of the level induced by the positive control mixture
B6	< 5 % of the level induced by the positive control mixture
B7	< 5 % of the level induced by the positive control mixture
B8	< 5 % of the level induced by the positive control mixture
